# According to the Human Domainome abundance scans (Beltran et al. 2025):
# ± gives the uncertainty stated by the source.
# B1: Pyruvate dehydrogenase protein X component, mitochondrial, residues 181 to 227; numbered along this chain, O00330 (parent)
# chain: RFRLSPAARNILEKHSLDASQGTATGPRGIFTKEDALKLVQLKQTGK
# Variants of: B1
# Assay: abundance fitness (aPCA) (normalised: wild type 0, dead -1); higher = more abundant; growth selection in yeast, the domain comes from the species named
# Conditions: Homo sapiens
row,Variant,abundance fitness
1,RFRLSPAARNILEKHSLDATQGTATGPRGIFTKEDALKLVQLKQTGK [S20T],-0.109 ± 0.051
2,RFRLSPAARNILEKHSLDAIQGTATGPRGIFTKEDALKLVQLKQTGK [S20I],-0.655 ± 0.17
3,RFRLSPAAKNILEKHSLDASQGTATGPRGIFTKEDALKLVQLKQTGK [R9K],0.1 ± 0.05
4,RFRLSPAADNILEKHSLDASQGTATGPRGIFTKEDALKLVQLKQTGK [R9D],-0.262 ± 0.058
5,RFRLSPAAVNILEKHSLDASQGTATGPRGIFTKEDALKLVQLKQTGK [R9V],-0.206 ± 0.054
6,RFRLSPAARNILEKHSLDASQGTATGPRGIFTKEDALKLVDLKQTGK [Q41D],-0.085 ± 0.1
7,RFRLSPAARNILEKHSLDASQGTATGPRGIFTKEDALKLVRLKQTGK [Q41R],0.214 ± 0.061
8,RFRLSPAARNILEKHSLDASQGTATGPRGIFTKEDALKLVQLVQTGK [K43V],-0.28 ± 0.057
9,RFRLSPAARNILEKHSLDASQGTATGPTGIFTKEDALKLVQLKQTGK [R28T],-0.281 ± 0.063
10,RFRLSPAARNILEKHSLDASQGTATGPFGIFTKEDALKLVQLKQTGK [R28F],-0.085 ± 0.073
11,RFRDSPAARNILEKHSLDASQGTATGPRGIFTKEDALKLVQLKQTGK [L4D],0.005 ± 0.097
12,RFRPSPAARNILEKHSLDASQGTATGPRGIFTKEDALKLVQLKQTGK [L4P],-0.333 ± 0.051
13,RFRLSPAARNILEKHSLDASQGTATGPRGIVTKEDALKLVQLKQTGK [F31V],-0.349 ± 0.065
14,RFRLSPAARNILEKHSLDASQGTATGPRGIFTKENALKLVQLKQTGK [D35N],-0.926 ± 0.39
15,RFRLSPAARNILEKHSLDASQGTATGPRGIFTKEIALKLVQLKQTGK [D35I],-0.956 ± 0.47
16,RFRLSPAARNILEKHSLDASQGTATGPRGIFTKETALKLVQLKQTGK [D35T],-0.936 ± 0.21
17,RFRLSPAARNILEKHSLDASQGTATGPRGIFTKEDALKLVQLKQQGK [T45Q],-0.209 ± 0.14
18,RFRLSPAARNILEKHSLDASQGTATGFRGIFTKEDALKLVQLKQTGK [P27F],-0.655 ± 0.14
19,RFRLSPAARNILEKHSLDASQGTATGPRGIFTKEDALKQVQLKQTGK [L39Q],-0.619 ± 0.21
20,RFRLSPAARNILEKHSLDASQGTATGPRGCFTKEDALKLVQLKQTGK [I30C],-0.234 ± 0.075
21,RFRLSPAARNILEKHSLDASQGTATGPRGIFTKEDALKLVQLKQTPK [G46P],-0.469 ± 0.13
22,RFRLSPAARNILEKHSLDASQGTATGPRGIFTKEDALKLVQLKQTDK [G46D],-0.343 ± 0.15
23,RFLLSPAARNILEKHSLDASQGTATGPRGIFTKEDALKLVQLKQTGK [R3L],-0.393 ± 0.05
24,RFFLSPAARNILEKHSLDASQGTATGPRGIFTKEDALKLVQLKQTGK [R3F],0.144 ± 0.06
25,RFVLSPAARNILEKHSLDASQGTATGPRGIFTKEDALKLVQLKQTGK [R3V],0.04 ± 0.045
26,RFRLSPAARNILEKHSLDASQGTATGPRGIFTFEDALKLVQLKQTGK [K33F],-0.623 ± 0.073
27,EFRLSPAARNILEKHSLDASQGTATGPRGIFTKEDALKLVQLKQTGK [R1E],-0.206 ± 0.14
28,CFRLSPAARNILEKHSLDASQGTATGPRGIFTKEDALKLVQLKQTGK [R1C],-0.516 ± 0.27

row,Variant,abundance fitness
1,RFRLSPAARNILEKHSLDASQGTATGPRGIFTKEDAYKLVQLKQTGK [L37Y],-0.383 ± 0.21
2,RFRLSPAARNILEKHSLDASQGTATGPRGIFTKEDAGKLVQLKQTGK [L37G],-0.233 ± 0.05
3,RFRLSPAARNILEKHSLDASQGTATGPRGIFTKEDADKLVQLKQTGK [L37D],0.035 ± 0.14
4,RFRLSPAARNILEKHSLDASQGTATGPRGIFTKEDALRLVQLKQTGK [K38R],0.042 ± 0.076
5,RFRLSPAARNILEKHSLDASQGTATGPRGIFTKEDALKLSQLKQTGK [V40S],-0.381 ± 0.088
6,RFRLSPAARNILWKHSLDASQGTATGPRGIFTKEDALKLVQLKQTGK [E13W],-0.841 ± 0.11
7,RFRLSPAARNILFKHSLDASQGTATGPRGIFTKEDALKLVQLKQTGK [E13F],-0.612 ± 0.082
8,RFRLSPAARNILRKHSLDASQGTATGPRGIFTKEDALKLVQLKQTGK [E13R],-0.242 ± 0.043
9,RFRLSPAARNILEKHSLDASQGTKTGPRGIFTKEDALKLVQLKQTGK [A24K],-0.638 ± 0.13
10,RIRLSPAARNILEKHSLDASQGTATGPRGIFTKEDALKLVQLKQTGK [F2I],-0.059 ± 0.1
11,RNRLSPAARNILEKHSLDASQGTATGPRGIFTKEDALKLVQLKQTGK [F2N],0.091 ± 0.073
12,RFRLSPAARVILEKHSLDASQGTATGPRGIFTKEDALKLVQLKQTGK [N10V],-0.001 ± 0.058
13,RFRLSPAARNILEKHSLDASTGTATGPRGIFTKEDALKLVQLKQTGK [Q21T],-0.427 ± 0.074
14,RFRLSPAARNILEKHSLDASQGTATGPRGIFCKEDALKLVQLKQTGK [T32C],-0.519 ± 0.12
15,RFRLSPAARNILEKHSLDASQGTATGPRGIFPKEDALKLVQLKQTGK [T32P],-0.492 ± 0.13
16,RFRLSPAARNILEKHSLDASQGTATGPRGIFTKEDALKLVQFKQTGK [L42F],-0.535 ± 0.14
17,RFRLSPAARNILEKHSLDASQGTATGPRGIFTKEDALKLVQCKQTGK [L42C],0.013 ± 0.062
18,RFRLSPAARNILEKHSLDASQGTATGPRGIFTKEDALKLVQVKQTGK [L42V],-0.001 ± 0.045
19,RFRLSPAARNILEKHSLDASQGTATGPRGIFTKNDALKLVQLKQTGK [E34N],-0.811 ± 0.27
20,RFRLSPAARNILEKHSLDASQSTATGPRGIFTKEDALKLVQLKQTGK [G22S],-0.619 ± 0.066
21,RFRLSPAARNILEKHSLFASQGTATGPRGIFTKEDALKLVQLKQTGK [D18F],-0.92 ± 0.12
22,RFRLSPAARNILEKHSLPASQGTATGPRGIFTKEDALKLVQLKQTGK [D18P],-0.815 ± 0.14
23,RFRLSPAARNNLEKHSLDASQGTATGPRGIFTKEDALKLVQLKQTGK [I11N],-0.194 ± 0.1
24,RFRLSPAARNILEKHSLDASQGTATEPRGIFTKEDALKLVQLKQTGK [G26E],-0.539 ± 0.085
25,RFRLSPAARNILEKHSLDASQGTATDPRGIFTKEDALKLVQLKQTGK [G26D],-0.444 ± 0.056
26,RFRLSPAARNILEKHSLDASQGTATGPRGIFTKEDLLKLVQLKQTGK [A36L],-0.756 ± 0.093
27,RFRLSPAARNILEKHSLDASQGTATGPRGIFTKEDSLKLVQLKQTGK [A36S],-0.512 ± 0.12
